Experiments:
[1] = molecular target: T1, Human FRA on IGROV-1 human ovarian adenocarcinoma cells (human, UniProt P15328 25-234); test: cell-based or functional assay
[2] = molecular target: T1, Human FRA on IGROV-1 human ovarian …; test: cell-based or functional assay; remark: listed apart in the source
[3] = molecular target: T1, Human FRA on IGROV-1 human ovarian …; test: cell-based or functional assay; remark: listed apart in the source
[4] = molecular target: T2, Recombinant human folate receptor alpha (FRA) (human, UniProt P15328 25-234); test: SPR, FRA on CM5 chip, parallel line analysis; reference standard = 100%
T2 construct: Immobilised on a CM5 chip by amine coupling; also called FR-alpha
T2 sequence (P15328 25-234 limits assumed): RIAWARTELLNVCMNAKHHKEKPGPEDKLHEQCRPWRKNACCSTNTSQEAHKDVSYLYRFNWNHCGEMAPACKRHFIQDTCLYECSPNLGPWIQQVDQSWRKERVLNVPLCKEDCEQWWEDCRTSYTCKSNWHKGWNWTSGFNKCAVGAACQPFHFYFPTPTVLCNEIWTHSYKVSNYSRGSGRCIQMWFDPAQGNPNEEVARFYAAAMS
Experimental: The surface was regenerated between cycles by flushing with 10 mM glycine pH 2.0.

T1 sequence (P15328 25-234 limits assumed): as above

Binder | IC50 (Hum-ZAP secondary immunotoxin killing of IGROV-1 cells) [1] [ng·mL] | Internalization IC50 [2] [ng/mL] | INTL % (0 Min) [3] [%] | INTL % (30 min) [3] [%] | INTL % (60 min) [3] [%] | INTL % (150 min) [3] [%] | Half-Maximal Internalization Constant [2] [min] | Measured Potency (%) [4] [%] | INTL % (15 min) [3] [%]
MORAb-003 anti-FRA antibody reference standard (antibody, human IgG1, kappa, V domains shown, N-linked neutral glycans at Asn299 in SEQ ID NO: 5) VH: EVQLVESGGGVVQPGRSLRLSCSASGFTFSGYGLSWVRQAPGKGLEWVAMISSGGSYTYYADSVKGRFAISRDNAKNTLFLQMDSLRPEDTGVYFCARHGDDPAWFAYWGQGTPVTVSS VL: DIQLTQSPSSLSASVGDRVTITCSVSSSISSNNLHWYQQKPGKAPKPWIYGTSNLASGVPSRFSGSGSGTDYTFTISSLQPEDIATYYCQQWSSYPYMYTFGQGTKVEIKR | 14 | 14 | – | – | – | – | – | – | –
MORAb-003 anti-FRA antibody, lot NB859-28 (low DO; harvested 14 days after initiation of culture) (antibody, human IgG1, kappa, V domains shown, N-linked neutral glycans at Asn299 in SEQ ID NO: 5, also called low DO (round 3)) VH: EVQLVESGGGVVQPGRSLRLSCSASGFTFSGYGLSWVRQAPGKGLEWVAMISSGGSYTYYADSVKGRFAISRDNAKNTLFLQMDSLRPEDTGVYFCARHGDDPAWFAYWGQGTPVTVSS VL: DIQLTQSPSSLSASVGDRVTITCSVSSSISSNNLHWYQQKPGKAPKPWIYGTSNLASGVPSRFSGSGSGTDYTFTISSLQPEDIATYYCQQWSSYPYMYTFGQGTKVEIKR | – | – | 0 | 19 | 44 | 53 | 36.5 | 44.5 | –
MORAb-003 anti-FRA antibody, lot NB810-12 (low temperature; harvested 14 days after initiation of culture) (antibody, human IgG1, kappa, V domains shown, N-linked neutral glycans at Asn299 in SEQ ID NO: 5) VH: EVQLVESGGGVVQPGRSLRLSCSASGFTFSGYGLSWVRQAPGKGLEWVAMISSGGSYTYYADSVKGRFAISRDNAKNTLFLQMDSLRPEDTGVYFCARHGDDPAWFAYWGQGTPVTVSS VL: DIQLTQSPSSLSASVGDRVTITCSVSSSISSNNLHWYQQKPGKAPKPWIYGTSNLASGVPSRFSGSGSGTDYTFTISSLQPEDIATYYCQQWSSYPYMYTFGQGTKVEIKR | 25 | 25 | 0 | 21 | 39 | 55 | 41.2 | 87.3 | 3
MORAb-003 anti-FRA antibody, lot NB809-65 (positive control; harvested 13 days after initiation of culture) (antibody, human IgG1, kappa, V domains shown, N-linked neutral glycans at Asn299 in SEQ ID NO: 5, also called Pos. ctl; positive control (round 2)) VH: EVQLVESGGGVVQPGRSLRLSCSASGFTFSGYGLSWVRQAPGKGLEWVAMISSGGSYTYYADSVKGRFAISRDNAKNTLFLQMDSLRPEDTGVYFCARHGDDPAWFAYWGQGTPVTVSS VL: DIQLTQSPSSLSASVGDRVTITCSVSSSISSNNLHWYQQKPGKAPKPWIYGTSNLASGVPSRFSGSGSGTDYTFTISSLQPEDIATYYCQQWSSYPYMYTFGQGTKVEIKR | 14 | 14 | 0 | 13 | 33 | 52 | 51.7 | 49.7 | 3
MORAb-003 anti-FRA antibody, lot NB810-13 (high osmolarity; harvested 14 days after initiation of culture) (antibody, human IgG1, kappa, V domains shown, N-linked neutral glycans at Asn299 in SEQ ID NO: 5) VH: EVQLVESGGGVVQPGRSLRLSCSASGFTFSGYGLSWVRQAPGKGLEWVAMISSGGSYTYYADSVKGRFAISRDNAKNTLFLQMDSLRPEDTGVYFCARHGDDPAWFAYWGQGTPVTVSS VL: DIQLTQSPSSLSASVGDRVTITCSVSSSISSNNLHWYQQKPGKAPKPWIYGTSNLASGVPSRFSGSGSGTDYTFTISSLQPEDIATYYCQQWSSYPYMYTFGQGTKVEIKR | 990 | 990 | 0 | 17 | 40 | 62 | 49.6 | 72.6 | –
MORAb-003 anti-FRA antibody, lot NB809-66 (0.5 mM Na butyrate; harvested 13 days after initiation of culture) (antibody, human IgG1, kappa, V domains shown, N-linked neutral glycans at Asn299 in SEQ ID NO: 5) VH: EVQLVESGGGVVQPGRSLRLSCSASGFTFSGYGLSWVRQAPGKGLEWVAMISSGGSYTYYADSVKGRFAISRDNAKNTLFLQMDSLRPEDTGVYFCARHGDDPAWFAYWGQGTPVTVSS VL: DIQLTQSPSSLSASVGDRVTITCSVSSSISSNNLHWYQQKPGKAPKPWIYGTSNLASGVPSRFSGSGSGTDYTFTISSLQPEDIATYYCQQWSSYPYMYTFGQGTKVEIKR | 15 | 15 | 0 | 8 | 31 | 50 | 53.5 | 61.5 | 3
MORAb-003 anti-FRA antibody, lot NB809-67 (low DO; harvested 13 days after initiation of culture) (antibody, human IgG1, kappa, V domains shown, N-linked neutral glycans at Asn299 in SEQ ID NO: 5) VH: EVQLVESGGGVVQPGRSLRLSCSASGFTFSGYGLSWVRQAPGKGLEWVAMISSGGSYTYYADSVKGRFAISRDNAKNTLFLQMDSLRPEDTGVYFCARHGDDPAWFAYWGQGTPVTVSS VL: DIQLTQSPSSLSASVGDRVTITCSVSSSISSNNLHWYQQKPGKAPKPWIYGTSNLASGVPSRFSGSGSGTDYTFTISSLQPEDIATYYCQQWSSYPYMYTFGQGTKVEIKR | 29 | 29 | 0 | 14 | 34 | 53 | 50.7 | 56.2 | 3
MORAb-003 anti-FRA antibody, lot NB810-10 (positive control; harvested 14 days after initiation of culture) (antibody, human IgG1, kappa, V domains shown, N-linked neutral glycans at Asn299 in SEQ ID NO: 5, also called Pos. ctl; positive control (round 1)) VH: EVQLVESGGGVVQPGRSLRLSCSASGFTFSGYGLSWVRQAPGKGLEWVAMISSGGSYTYYADSVKGRFAISRDNAKNTLFLQMDSLRPEDTGVYFCARHGDDPAWFAYWGQGTPVTVSS VL: DIQLTQSPSSLSASVGDRVTITCSVSSSISSNNLHWYQQKPGKAPKPWIYGTSNLASGVPSRFSGSGSGTDYTFTISSLQPEDIATYYCQQWSSYPYMYTFGQGTKVEIKR | 1630 | 1630 | 0 | 9 | 32 | 56 | 58.4 | 85.5 | 4
MORAb-003 anti-FRA antibody, lot NB810-11 (galactose supplement; harvested 14 days after initiation of culture) (antibody, human IgG1, kappa, V domains shown, N-linked neutral glycans at Asn299 in SEQ ID NO: 5) VH: EVQLVESGGGVVQPGRSLRLSCSASGFTFSGYGLSWVRQAPGKGLEWVAMISSGGSYTYYADSVKGRFAISRDNAKNTLFLQMDSLRPEDTGVYFCARHGDDPAWFAYWGQGTPVTVSS VL: DIQLTQSPSSLSASVGDRVTITCSVSSSISSNNLHWYQQKPGKAPKPWIYGTSNLASGVPSRFSGSGSGTDYTFTISSLQPEDIATYYCQQWSSYPYMYTFGQGTKVEIKR | 19 | 19 | 0 | 6 | 29 | 50 | 56.6 | 84.7 | 3
MORAb-003 anti-FRA antibody, lot NB809-68 (high CO2; harvested 13 days after initiation of culture) (antibody, human IgG1, kappa, V domains shown, N-linked neutral glycans at Asn299 in SEQ ID NO: 5) VH: EVQLVESGGGVVQPGRSLRLSCSASGFTFSGYGLSWVRQAPGKGLEWVAMISSGGSYTYYADSVKGRFAISRDNAKNTLFLQMDSLRPEDTGVYFCARHGDDPAWFAYWGQGTPVTVSS VL: DIQLTQSPSSLSASVGDRVTITCSVSSSISSNNLHWYQQKPGKAPKPWIYGTSNLASGVPSRFSGSGSGTDYTFTISSLQPEDIATYYCQQWSSYPYMYTFGQGTKVEIKR | 28 | 28 | 0 | 14 | 36 | 52 | 46.5 | 50.5 | 4
MORAb-003 anti-FRA antibody, lot NB809-69 (10 mM Na butyrate; harvested 13 days after initiation of culture) (antibody, human IgG1, kappa, V domains shown, N-linked neutral glycans at Asn299 in SEQ ID NO: 5) VH: EVQLVESGGGVVQPGRSLRLSCSASGFTFSGYGLSWVRQAPGKGLEWVAMISSGGSYTYYADSVKGRFAISRDNAKNTLFLQMDSLRPEDTGVYFCARHGDDPAWFAYWGQGTPVTVSS VL: DIQLTQSPSSLSASVGDRVTITCSVSSSISSNNLHWYQQKPGKAPKPWIYGTSNLASGVPSRFSGSGSGTDYTFTISSLQPEDIATYYCQQWSSYPYMYTFGQGTKVEIKR | 24 | 24 | 0 | 14 | 36 | 56 | 51.2 | 49.3 | 4
MORAb-003 anti-FRA antibody, lot NB809-70 (CuCl supplement; harvested 13 days after initiation of culture) (antibody, human IgG1, kappa, V domains shown, N-linked neutral glycans at Asn299 in SEQ ID NO: 5) VH: EVQLVESGGGVVQPGRSLRLSCSASGFTFSGYGLSWVRQAPGKGLEWVAMISSGGSYTYYADSVKGRFAISRDNAKNTLFLQMDSLRPEDTGVYFCARHGDDPAWFAYWGQGTPVTVSS VL: DIQLTQSPSSLSASVGDRVTITCSVSSSISSNNLHWYQQKPGKAPKPWIYGTSNLASGVPSRFSGSGSGTDYTFTISSLQPEDIATYYCQQWSSYPYMYTFGQGTKVEIKR | 27 | 27 | 0 | 16 | 37 | 58 | 53.3 | 48 | 6
MORAb-003 anti-FRA antibody, lot NB859-24 (harvested 10 days after initiation of culture) (antibody, human IgG1, kappa, V domains shown, N-linked neutral glycans at Asn299 in SEQ ID NO: 5, also called Day 10 harvest) VH: EVQLVESGGGVVQPGRSLRLSCSASGFTFSGYGLSWVRQAPGKGLEWVAMISSGGSYTYYADSVKGRFAISRDNAKNTLFLQMDSLRPEDTGVYFCARHGDDPAWFAYWGQGTPVTVSS VL: DIQLTQSPSSLSASVGDRVTITCSVSSSISSNNLHWYQQKPGKAPKPWIYGTSNLASGVPSRFSGSGSGTDYTFTISSLQPEDIATYYCQQWSSYPYMYTFGQGTKVEIKR | 15 | 15 | 0 | 18 | 40 | 58 | 44.6 | 33.8 | 1
